Experimental data as given in patent US20150368338A1 (Janssen / Centocor, published 2015).
Positions count from the first letter of the chain named.

T1: IFN-αF (human, UniProt P01568 24-189)
T1 construct: also called IFN-α21; alpha F
T1 chain: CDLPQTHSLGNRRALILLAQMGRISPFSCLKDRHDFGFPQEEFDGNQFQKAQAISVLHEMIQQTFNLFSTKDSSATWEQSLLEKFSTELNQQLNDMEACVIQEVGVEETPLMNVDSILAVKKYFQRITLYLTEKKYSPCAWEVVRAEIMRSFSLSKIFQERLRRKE

B1: IFWM3320 (antibody, V domains shown)
VH: EVQLVQSGAEVKKPGESLKISCKGSGYSFTSYWIGWVRQMPGKGLEWMGIIDPSDSDTRYSPSFQGQVTISADKSISTAYLQWSSLKASDTAMYYCARHPGLNWAPDFDYWGQGTLVTVSS
VL: DIQMTQSPSSLSASVGDRVTITCRASQSINGVLNWYQQKPGKAPKLLIYFASSLQSGVPSRFSGSGSGTDFTLTISSLQPEDFATYYCQQSHDFPLTFGQGTKVEIK
notes: VH IFWH591, VL IFWL1047; converted mAb; also called IFWB3055
B2: IFWM3346 (antibody, V domains shown)
VH: B1 VH with R59A
VL: B1 VL with N30G, G31D, V32F, S91A, H92L
notes: VH IFWH624, VL IFWL1001; converted mAb; also called IFWB3081
B3: IFWM3344 (antibody, V domains shown)
VH: B1 VH with R59A
VL: B1 VL with N30S, G31K, V32F, H92N, D93T, F94L, L96F
notes: VH IFWH624, VL IFWL998; converted mAb; also called IFWB3079
B4: IFWM3340 (antibody, V domains shown)
VH: B1 VH with R59A
VL: B1 VL with N30D, V32S, H92Y
notes: VH IFWH624, VL IFWL983; converted mAb; also called IFWB3075
B5: IFWM3348 (antibody, V domains shown)
VH: B1 VH with R59A
VL: B1 VL with N30G, V32F, H92Y, D93S, F94L, L96I
notes: VH IFWH624, VL IFWL1006; converted mAb; also called IFWB3083
B6: IFWM3355 (antibody, V domains shown)
VH: B1 VH with R59A
VL: B1 VL with G31E, V32F, H92Y, D93S, F94T
notes: VH IFWH624, VL IFWL1022; converted mAb; also called IFWB3090
B7: IFWM3321 (antibody, V domains shown)
VH: B1 VH
VL: B1 VL with N30D, V32A, S91A, H92Y
notes: VH IFWH591, VL IFWL1048; converted mAb; also called IFWB3056
B8: IFWM3353 (antibody, V domains shown)
VH: B1 VH with R59A
VL: B1 VL with N30D, G31R, V32A, H92F
notes: VH IFWH624, VL IFWL1014; converted mAb; also called IFWB3088
B9: IFWM3349 (antibody, V domains shown)
VH: B1 VH with R59A
VL: B1 VL with N30G, G31K, V32S, H92Y
notes: VH IFWH624, VL IFWL1007; converted mAb; also called IFWB3084
B10: IFWM3343 (antibody, V domains shown)
VH: B1 VH with R59A
VL: B1 VL with N30G, G31S, V32A, H92Y
notes: VH IFWH624, VL IFWL997; converted mAb; also called IFWB3078
B11: IFWM3341 (antibody, V domains shown)
VH: B1 VH with R59A
VL: B1 VL with G31R, V32F, F50A, S91A, H92I, F94L, L96F
notes: VH IFWH624, VL IFWL991; converted mAb; also called IFWB3076
B12: IFWM3342 (antibody, V domains shown)
VH: B1 VH with R59A
VL: B1 VL with N30G, G31S, V32F, H92Y, D93S, F94I, L96I
notes: VH IFWH624, VL IFWL992; converted mAb; also called IFWB3077
B13: IFWM3352 (antibody, V domains shown)
VH: B1 VH with R59A
VL: B1 VL with G31N, V32F, H92F, D93N, F94L, L96I
notes: VH IFWH624, VL IFWL1013; converted mAb; also called IFWB3087
B14: IFWM3322 (antibody, V domains shown)
VH: B1 VH
VL: B1 VL with N30A, G31D, V32F, D93S
notes: VH IFWH591, VL IFWL1051; converted mAb; also called IFWB3057
B15: IFWM3351 (antibody, V domains shown)
VH: B1 VH with R59A
VL: B1 VL with N30D, V32A, H92F
notes: VH IFWH624, VL IFWL1010; converted mAb; also called IFWB3086
B16: IFWM3345 (antibody, V domains shown)
VH: B1 VH with R59A
VL: B1 VL with N30T, G31N, V32F, H92L
notes: VH IFWH624, VL IFWL1000; converted mAb; also called IFWB3080
B17: IFWM3354 (antibody, V domains shown)
VH: B1 VH with R59A
VL: B1 VL with N30T, G31S, V32S, H92F, F94L
notes: VH IFWH624, VL IFWL1017; converted mAb; also called IFWB3089
B18: IFWM3325 (antibody, V domains shown)
VH: B1 VH
VL: B1 VL with N30R, G31N, V32S, Y49K, F50W, S91L, H92Y, F94W
notes: VH IFWH591, VL IFWL1060; converted mAb; also called IFWB3060
B19: IFWM3350 (antibody, V domains shown)
VH: B1 VH with R59A
VL: B1 VL with N30D, G31D, V32F, D93T, F94L
notes: VH IFWH624, VL IFWL1009; converted mAb; also called IFWB3085
B20: IFWM3347 (antibody, V domains shown)
VH: B1 VH with R59A
VL: B1 VL with N30A, G31E, V32F, H92I
notes: VH IFWH624, VL IFWL1004; converted mAb; also called IFWB3082

These binders were tested against T2, IFN-α4a (human, UniProt P05014 24-189) (assay: ProteOn, one antigen concentration).
T2 construct: also called IFN-αM1
From the text: (§1) To increase the assay throughput, only one concentration of the individual antigen was used.

Row | Binder | Kd [pM]
1 | B1 | 89
2 | B2 | 480
3 | B3 | 442
4 | B4 | 201
5 | B5 | 89
6 | B6 | 122
7 | B7 | 159
8 | B8 | 110
9 | B9 | 174
10 | B10 | 237
11 | B11 | 445
12 | B12 | 589
13 | B13 | 267
14 | B14 | 272
15 | B15 | 113
16 | B16 | 324
17 | B17 | 123
18 | B18 | 111
19 | B19 | 161
20 | B20 | 350

The binders below were run against T3, human IFN-ω (human, UniProt P05000 24-195) (assay: ProteOn, one antigen concentration).
T3 construct: also called interferon omega
From the text: as §1

Row | Binder | Kd [pM]
21 | B1 | 21
22 | B2 | 52
23 | B3 | 78
24 | B4 | 4
25 | B5 | 50
26 | B6 | 26
27 | B7 | 33
28 | B8 | 6
29 | B9 | 7
30 | B10 | 20
31 | B11 | 8
32 | B12 | 68
33 | B13 | 60
34 | B14 | 40
35 | B15 | 4
36 | B16 | 4
37 | B17 | 17
38 | B18 | 11
39 | B19 | 20
40 | B20 | 48

Each binder was assayed against T4, IFN-αC (human, UniProt P01566 24-189) (assay: ProteOn, one antigen concentration).
T4 construct: also called IFN-α10; alpha C
From the text: as §1

Row | Binder | Kd [pM]
41 | B1 | 20
42 | B2 | 105
43 | B3 | 161
44 | B4 | 48
45 | B5 | 83
46 | B6 | 55
47 | B7 | 33
48 | B8 | 54
49 | B9 | 56
50 | B10 | 65
51 | B11 | 104
52 | B12 | 142
53 | B13 | 121
54 | B14 | 42
55 | B15 | 48
56 | B16 | 72
57 | B17 | 43
58 | B18 | 22
59 | B19 | 57
60 | B20 | 96

Molecular target: T1, IFN-αF
Assay: ProteOn, one antigen concentration
From the text: as §1

Row | Binder | Kd [pM]
61 | B1 | 13
62 | B2 | 117
63 | B3 | 140
64 | B4 | 41
65 | B5 | 64
66 | B6 | 52
67 | B7 | 24
68 | B8 | 55
69 | B9 | 52
70 | B10 | 63
71 | B11 | 88
72 | B12 | 164
73 | B13 | 152
74 | B14 | 33
75 | B15 | 53
76 | B16 | 120
77 | B17 | 32
78 | B18 | 32
79 | B19 | 54
80 | B20 | 136

These binders were tested against T5, IFN-αWA (human, UniProt P05015 24-189) (assay: ProteOn, one antigen concentration).
T5 construct: also called IFN-α16; alpha WA
From the text: as §1

Row | Binder | Kd [pM]
81 | B1 | 41
82 | B2 | 170
83 | B3 | 105
84 | B4 | 56
85 | B5 | 49
86 | B6 | 41
87 | B7 | 58
88 | B8 | 31
89 | B9 | 102
90 | B10 | 83
91 | B11 | 134
92 | B12 | 95
93 | B13 | 87
94 | B14 | 86
95 | B15 | 33
96 | B16 | 111
97 | B17 | 52
98 | B18 | 91
99 | B19 | 66
100 | B20 | 125

What follows are binders tested against T6, IFN-αG (human, UniProt P01569 24-189) (assay: ProteOn, one antigen concentration).
T6 construct: also called IFN-α5; alpha G
From the text: as §1

Row | Binder | Kd [pM]
101 | B1 | 33
102 | B2 | 86
103 | B3 | 112
104 | B4 | 24
105 | B5 | 20
106 | B6 | 60
107 | B7 | 36
108 | B8 | 16
109 | B9 | 65
110 | B10 | 60
111 | B11 | 63
112 | B12 | 14
113 | B13 | 90
114 | B14 | 58
115 | B15 | 15
116 | B16 | 92
117 | B17 | 43
118 | B18 | 33
119 | B19 | 98
120 | B20 | 84

What follows are binders tested against T7, IFN-αJ1 (human, UniProt P01567 24-189) (assay: ProteOn, one antigen concentration).
T7 construct: also called IFN-α7; alpha J1
From the text: as §1

Row | Binder | Kd [pM]
121 | B1 | 61
122 | B2 | 505
123 | B3 | 274
124 | B4 | 124
125 | B5 | 164
126 | B6 | 79
127 | B7 | 79
128 | B8 | 95
129 | B9 | 123
130 | B10 | 157
131 | B11 | 275
132 | B12 | 269
133 | B13 | 287
134 | B14 | 127
135 | B15 | 140
136 | B16 | 169
137 | B17 | 98
138 | B18 | 92
139 | B19 | 55
140 | B20 | 411
